Measurements taken from patent US20090263864A1 (CRUCELL HOLLAND B V, published 2009).

Molecular target: T1, CD46 on human coloncarcinoma LS174T cells (human, UniProt P15529 35-392)
T1 construct: whole, on cells
T1 sequence (looked up): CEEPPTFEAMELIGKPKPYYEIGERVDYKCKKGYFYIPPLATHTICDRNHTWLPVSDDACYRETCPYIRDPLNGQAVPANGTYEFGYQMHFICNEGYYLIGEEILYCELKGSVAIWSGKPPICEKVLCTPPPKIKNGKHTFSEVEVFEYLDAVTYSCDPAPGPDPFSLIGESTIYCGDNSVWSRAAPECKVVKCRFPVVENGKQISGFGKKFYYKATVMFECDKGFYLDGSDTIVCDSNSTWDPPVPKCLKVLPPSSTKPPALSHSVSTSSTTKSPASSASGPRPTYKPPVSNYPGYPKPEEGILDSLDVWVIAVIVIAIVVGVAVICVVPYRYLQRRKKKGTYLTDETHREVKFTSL
Assay: FACS on LS174T cells preincubated with normal human serum; biotinylated antibody, streptavidin-PE; MFI
Experimental: Binding (MFI, ordinate) was determined by FACS after incubation with streptavidin-conjugated phycoerythrin.

B1: K53 IgG (antibody, V domains shown)
VH: QVQLVQSGAEVKKPGASVKVSCKASGYTFTSYGISWVRQAPGQGLEWMGWISAYNGNTNYAQKLQGRVTMTTDTSTSTAYMELRSLRSDDTAVYYCARGMMRGVFDYWGQGTLVTVST
VL: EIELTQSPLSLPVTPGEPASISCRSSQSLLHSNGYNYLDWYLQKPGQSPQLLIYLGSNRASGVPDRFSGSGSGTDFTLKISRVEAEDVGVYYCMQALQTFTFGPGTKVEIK
notes: also called clone K53; anti-CD46 clone K53
  EC50 (read off the curve): ~3 µg/mL
